From patent US20100279930A1 (published 2010)
Where two headings read alike, the source gives them in different places. No end group written: not given here.

What was measured:
human Y4 receptor [1] = biological target: T1, human Y4 receptor (human, UniProt P50391 1-375); assay: 125I-PP displacement
human Y4 receptor [2] = biological target: T1, human Y4 receptor; assay: 125I-PP displacement; remark: listed apart in the source

T1 sequence (P50391 whole entry): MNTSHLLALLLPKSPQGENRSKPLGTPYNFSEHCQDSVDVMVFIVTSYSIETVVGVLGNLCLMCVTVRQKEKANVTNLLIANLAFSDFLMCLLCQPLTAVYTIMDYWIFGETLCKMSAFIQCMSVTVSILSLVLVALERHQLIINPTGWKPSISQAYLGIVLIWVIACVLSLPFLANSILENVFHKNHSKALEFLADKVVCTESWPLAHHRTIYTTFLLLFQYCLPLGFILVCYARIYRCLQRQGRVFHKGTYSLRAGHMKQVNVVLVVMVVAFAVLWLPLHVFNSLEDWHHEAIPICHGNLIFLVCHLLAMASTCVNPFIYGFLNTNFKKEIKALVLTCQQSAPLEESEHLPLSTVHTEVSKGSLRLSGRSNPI

Binder	IC50 (human Y4 receptor [1]) [pM]	IC50 (human Y4 receptor [2]) [pM]
AAPLEPKYPGDNATPEQLAKYAAELRRYINKLTRPRY [4058166]	56	–
GAPLEPSYPGDNATPEQMAKYAAELRRYINKLTRPRY [4058149]	70	–
AAPLEPKYPGDNATPEQMAKYAAELRRYINKLTRPRY [4058159]	106	–
PLEPSYPGDNATPEQMAKYAAELRRYINLLTRPRY [4058152]	88	–
PLEPTYPGDNATPEQMARYAAALRRYINKLTRPRY [4058067]	47	–
PAPLEPHYPGDNATPEEMAKYAAELRRYINKLTRPRY [4058079]	71	–
YAPLEPEYPGDNATPEEMAKYAAELRRYINKLTRPRY [4058075]	58	–
HAPLEPSYPGDNATPEQMAKYAAELRRYINKLTRPRY [4058150]	113	–
PAPLEPEYPGDNATPEQMAKYAAELRRYINLLTRPRY [4058155]	125	–
YAPLEPSYPGDNATPEQMAKYAAELRRYINKLTRPRY [4058151]	58	–
PAPLEPVYPGDNATPEQLARYYSELRRYINKLTRPRY [4058297]	43	–
PAPLEPHYPGDNATPEQMAKYAADLRRYINKLTRPRF [4057747]	–	66
PAPLEIVYPGDNATPEQMARYYSELRRYINKLTRPRY [4058285]	210	–
PAPLEPTYPGDNATPEQMAHYYSELRRYINKLTRPRY [4057783]	–	154
AAPLEPTYPGDNATPEQLAHYYSELRRYINKLTRPRY [4057784]	–	102
AAPLEPTYPGDNATPEQMAHYYSELRRYINKLTRPRY [4057782]	–	78
PAPLEPSYPGDNATPEQMAKYAAELRRYINLLTRPRY [4058153]	107	–
HAPLEPKYPGDNATPEQMAKYAAELRRYINKLTRPRY [4058163]	87	–
HAPLEPVYPGDNATPEQMAKYAADLRRYINKLTRPRY [4057879]	–	134
PAPLEPVYPGDNASPEQMARYAAELRRYINKLTRPRY [4057770]	–	81

Binder	IC50 (human Y4 receptor [1]) [pM]	IC50 (human Y4 receptor [2]) [pM]
APLEPHYPGDDATPQQMARYAAELRRYINLLTRPRY [4058056]	–	100
AAPLEPHYPGDNATPEQMAKYAADLRRYINKLTRPRF [4057746]	–	72
PAPLEAVYPGDNATPEQMARYYSELRRYINKLTRPRY (ends and bridges not checked) [compound of SEQ ID NO:702 (code 4058286)]	93	–
PLEPHYPGDDATPQQMARYAAELRRYINKLTRPRY [4057898]	–	63
PAPLEPKYPGDNATPEQLAKYAAELRRYINKLTRPRY [4058168]	48	–
HAPLEPHYPGDNATPEQMAKYAADLRRYINKLTRPRY [4057891]	–	146
AAPLEPVYPGDNATPEQLARYYSELRRYINKLTRPRY [4058298]	72	–
GAPLEPKYPGDNATPEQMAKYAAELRRYINKLTRPRY [4058160]	52	–
PLEPHYPGDNATPEQLAKYAADLRRYINKLTRPRY [4057893]	–	144
PAPLEPHYPGDDATPQQMARYAAELRRYINLLTRPRY [4058057]	–	111
AAPLEPSYPGDNATPEQMAKYAAELRRYINKLTRPRY [4058148]	51	–
PAPLEPEYPGDNATPEELAKYAAELRRYINKLTRPRY [4058078]	72	–
AAPLEPVYPGDNATPEEMARYYSELRRYINKLTRPRY [4058295]	59	–
PAPLEPSYPGDDATPQQMAHYYAELRRYINKLTRPRY [4057774]	–	227
PLEPEYPGDNATPEEMAKYAAELRRYINKLTRPRY [4058072]	51	–
APLEPHYPGDNATPEQLAKYAADLRRYINKLTRPRY [4057751]	–	65
PLEPSYPGDNATPEQMAKYAAELRRYINKLTRPRY [4058146]	46	–
PAPLEPTYPGDNATPEQMARYAAALRRYINKLTRPRY [4058070]	30	–
PLEPEYPGDNATPEQMAKYAAELRRYINLLTRPRY [4058154]	105	–
PAPLEPTYPGDNATPEQLAHYYSELRRYINKLTRPRY [4057785]	–	134

Binder	IC50 (human Y4 receptor [1]) [pM]	IC50 (human Y4 receptor [2]) [pM]
AAPLEPSYPGDNATPEQMAHYYSELRRYINKLTRPRY [4057777]	–	88
PLEPVYPGDNATPEQLARYYSELRRYINKLTRPRY [4058296]	53	–
YAPLEPKYPGDNATPEQMAKYAAELRRYINKLTRPRY [4058164]	58	–
PLEPKYPGDNATPEQLAKYAAELRRYINKLTRPRY [4058165]	63	–
AAPLEPEYPGDNATPEEMAKYAAELRRYINKLTRPRY [4058076]	48	–
AAPLEPVYPGDNATPEQMARYYSELRRYINKLTRPRY [4058280]	42	–
APLEPSYPGDNATPEQMAKYAAELRRYINKLTRPRY [4058147]	57	–
GAPLEPEYPGDNATPEEMAKYAAELRRYINKLTRPRY [4058073]	131	–
HAPLEPTYPGDNATPEQMARYAAALRRYINKLTRPRY [4058069]	70	–
HAPLEPEYPGDNATPEEMAKYAAELRRYINKLTRPRY [4058074]	116	–
PLEPKYPGDNATPEQMAKYAAELRRYINKLTRPRY [4058158]	47	–
AAPLEPTYPGDNATPEQMARYAAALRRYINKLTRPRY [4058068]	26	–
AAPLEPHYPGDDATPQQMAHYYSELRRYINKLTRPRY [4057788]	–	155
PAPLEPHYPGDNATPEQMAKYAAALRRYINKLTRPRY [4057756]	–	124
GAPLEPKYPGDNATPEQLAKYAAELRRYINKLTRPRY [4058167]	60	–
YAPLEPHYPGDDATPQQMARYAAELRRYINLLTRPRY [4058055]	–	110
PAPLEPHYPGDNATPEQMAKYAAELRRYINKLTRPRY [4057766]	–	89
PAPLEPEYPGDNATPEEMAKYAAELRRYINKLTRPRY [4058077]	59	–
GAPLEPHYPGDNATPEQMARYAAELRRYINKLTRPRY [4057903]	–	90
